Values belong to the molecule of their own block, whether it stands above or below them.
Columns and labels:
[1] = test system: αIIbβ3 headpiece ligand binding site; assay: Occupancy of ligand binding site by soaked RGD peptide; settings: 10 mM GRGDSP, Mg/Ca (5 mM Mg/1 mM Ca), 24 h, closed headpiece crystals
[2] = target: αIIbβ3 integrin headpiece (UniProt P08514); assay: crystal structure
[3] = target: T1, β3 subunit PSI, hybrid, βI, and I-EGF-1 domains (UniProt P05106); assay: crystal structure
T1 sequence: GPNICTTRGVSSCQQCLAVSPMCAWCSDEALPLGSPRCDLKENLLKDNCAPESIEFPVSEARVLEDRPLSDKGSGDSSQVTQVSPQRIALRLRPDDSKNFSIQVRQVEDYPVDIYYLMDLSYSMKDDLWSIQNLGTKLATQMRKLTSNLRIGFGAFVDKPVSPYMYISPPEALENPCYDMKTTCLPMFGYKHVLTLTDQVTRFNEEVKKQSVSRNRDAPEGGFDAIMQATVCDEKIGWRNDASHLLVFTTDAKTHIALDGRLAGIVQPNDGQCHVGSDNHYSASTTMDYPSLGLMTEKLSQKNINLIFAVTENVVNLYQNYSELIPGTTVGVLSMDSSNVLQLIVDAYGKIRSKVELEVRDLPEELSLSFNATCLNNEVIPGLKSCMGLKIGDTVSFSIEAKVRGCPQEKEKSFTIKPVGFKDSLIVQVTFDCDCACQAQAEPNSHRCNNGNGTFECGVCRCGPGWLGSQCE

[4] = target: T2, αIIb subunit β-propeller domain (UniProt P08514); assay: crystal structure
T2 sequence: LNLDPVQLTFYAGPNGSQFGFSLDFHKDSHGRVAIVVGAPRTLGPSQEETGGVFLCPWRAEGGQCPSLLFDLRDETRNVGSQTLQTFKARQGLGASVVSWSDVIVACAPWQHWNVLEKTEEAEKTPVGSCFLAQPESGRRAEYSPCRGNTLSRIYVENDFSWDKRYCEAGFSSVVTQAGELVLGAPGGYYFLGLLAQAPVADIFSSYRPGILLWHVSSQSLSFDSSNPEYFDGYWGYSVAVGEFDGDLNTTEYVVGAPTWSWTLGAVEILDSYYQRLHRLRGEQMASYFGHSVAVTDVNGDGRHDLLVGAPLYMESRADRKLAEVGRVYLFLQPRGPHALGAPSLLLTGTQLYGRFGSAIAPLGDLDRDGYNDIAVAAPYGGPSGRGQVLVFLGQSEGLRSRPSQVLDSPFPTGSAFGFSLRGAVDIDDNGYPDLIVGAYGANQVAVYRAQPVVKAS

[5] = target: T3, αIIbβ3 integrin headpiece (UniProt P08514;P05106); assay: crystal structure
T3 sequence 1: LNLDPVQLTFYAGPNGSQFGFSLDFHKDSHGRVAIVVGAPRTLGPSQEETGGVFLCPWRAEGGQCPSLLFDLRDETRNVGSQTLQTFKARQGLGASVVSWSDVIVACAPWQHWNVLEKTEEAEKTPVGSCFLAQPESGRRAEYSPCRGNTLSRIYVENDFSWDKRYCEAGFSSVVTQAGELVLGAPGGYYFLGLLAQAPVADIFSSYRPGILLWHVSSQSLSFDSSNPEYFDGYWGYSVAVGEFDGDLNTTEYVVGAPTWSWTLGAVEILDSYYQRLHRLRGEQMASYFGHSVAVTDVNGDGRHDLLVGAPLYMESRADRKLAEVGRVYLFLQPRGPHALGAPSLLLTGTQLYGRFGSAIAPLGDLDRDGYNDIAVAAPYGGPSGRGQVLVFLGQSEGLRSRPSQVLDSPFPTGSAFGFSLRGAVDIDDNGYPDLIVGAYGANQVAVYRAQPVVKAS
T3 sequence 2: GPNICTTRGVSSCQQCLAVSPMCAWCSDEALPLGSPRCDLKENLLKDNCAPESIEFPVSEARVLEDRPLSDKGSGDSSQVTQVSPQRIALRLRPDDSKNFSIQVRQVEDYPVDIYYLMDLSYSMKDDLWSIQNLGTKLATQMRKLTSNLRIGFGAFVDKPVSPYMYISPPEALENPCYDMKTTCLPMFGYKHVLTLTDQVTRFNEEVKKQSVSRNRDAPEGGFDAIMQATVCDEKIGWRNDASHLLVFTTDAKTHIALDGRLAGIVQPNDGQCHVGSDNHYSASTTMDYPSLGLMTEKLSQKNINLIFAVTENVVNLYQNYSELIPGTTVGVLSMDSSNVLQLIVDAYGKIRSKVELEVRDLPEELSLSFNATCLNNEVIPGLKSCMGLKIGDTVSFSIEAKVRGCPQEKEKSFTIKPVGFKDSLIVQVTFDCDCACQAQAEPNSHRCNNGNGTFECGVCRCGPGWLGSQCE

[6] = test system: α4β7 headpiece; settings: EM; ref Yu et al., 2012; cited from earlier work

Molecule: GRGDSP peptide
Kd [2]: 0.34 to 10 mM
fold higher affinity of the open than of the closed headpiece [2]: > 200 fold

B1: MAdCAM-1: ligand binding to the α4β7 headpiece (protein, UniProt Q13477 19-382, looked up)
Mucosal addressin cell …: QSLQVKPLQVEPPEPVVAVALGASRQLTCRLACADRGASVQWRGLDTSLGAVQSDTGRSVLTVRNASLSAAGTRVCVGSCGGRTFQHTVQLLVYAFPDQLTVSPAALVPGDPEVACTAHKVTPVDPNALSFSLLVGGQELEGAQALGPEVQEEEEEPQGDEDVLFRVTERWRLPPLGTPVPPALYCQATMRLPGLELSHRQAIPVLHSPTSPEPPDTTSPESPDTTSPESPDTTSQEPPDTTSPEPPDKTSPEPAPQQGSTHTPRSPGSTRTRRPEISQAGPTQGEVIPTGSSKPAGDQLPAALWTSSAVLGLLLLALPTYHLWKRCRHLAEDDTHPPASLRLLPQVSAWAGLRGTGQVGISPS
State of the headpiece upon binding [6]: either an intermediate or open state

Next, values leading:

Bound ligand / occupation of the ligand binding site [1]: diffraction revealed bound peptide
Molecule: N=C(N)NCCC[C@H](NC(=O)CN)C(=O)NCC(=O)N[C@@H](CC(=O)O)C(=O)N[C@@H](CO)C(=O)N1CCC[C@H]1C(=O)O [GRGDSP]

binding result [3]: binds
binding result [4]: binds
Molecule: GRGDSP [GRGDSP peptide]

binding result [5]: binds
Molecule: GRGDSPK [GRGDSPK peptide]

— paper PMC3691460 (The Journal of Cell Biology, 2013)
